Reference: publication PMC10315065 (Journal of Innate Immunity, 2023)

Legend:
[1] = system: cell surface GAPDH, J774; type: cell-based, mouse; details: IFNγ 100 ng/mL, 24 h; n = 3
[2] = system: GAPDH, J774; test: GAPDH activity in cell lysate; type: cell-based, mouse
[3] = system: cell surface GAPDH, THP-1; type: cell-based; details: IFNγ; empty vector vs GAPDH knockdown; n = 3
[4] = system: P2X7, THP-1; type: cell-based; details: IFNγ; empty vector vs GAPDH knockdown; n = 3

B1: IFNγ: recombinant mouse IFNγ (PeproTech #315-05) (protein, UniProt P01580 23-155, looked up)
Interferon gamma: HGTVIESLESLNNYFNSSGIDVEEKSLFLDIWRNWQKDGDMKILQSQIISFYLRLFEVLKDNQAISNNISVIESHLITTFFSNSKAKKDAFMSIAKFEVNNPQVQRQAFNELIRVVHQLLPESSLRKRKRSRC
- increase in cell surface GAPDH localization [1]: ~50%
- GAPDH activity ([2]; IFNγ 100 ng/mL, 24 h): enhanced GAPDH activity
- total cellular GAPDH ([2]; IFNγ treatment, Fig. 1i): significant increase in total cellular GAPDH
- GAPDH recruitment on the cell surface, WT and GAPDH K/D [3]: enhanced GAPDH recruitment on the cell surface of WT cells but failed to do so in GAPDH K/D cells
- surface P2X7 expression [4]: surface expression of P2X7 continued to be elevated irrespective of GAPDH K/D
